The values below come from patent publication US20230190812A1 (published 2023).

The target of this assay is T1, MAGE-A4 (MA4-230) peptide on HLA-A*02:01 (human).
T1 peptide: GVYDGREHTV
The assay can be described thus: multimer staining.

B1: MA4-230 H1 TCR (TCR, V domains shown)
Valpha: LAKTTQPISMDSYEGQEVNITCSHNNIATNDYITWYQQFPSQGPRFIIQGYKTKVTNEVASLFIPADRKSSTLSLPRVSLSDTAVYYCLVVEGNRDDKIIFGKGTRLHILP
Vbeta: NAGVTQTPKFRVLKTGQSMTLLCAQDMNHEYMYWYRQDPGMGLRLIHYSVGEGTTAKGEVPDGYNVSRLKKQNFLLGLESAAPSQTSVYFCASPPTPSSYNEQFFGPGTRLTVL
On to B1, for which the binding result is on record as “recognises”.
